Experimental data as given in article PMC6959987.

Assays:
[1] = target: Augmin-GFP (purified mitotic Augmin complex) (Drosophila | Drosophila (endogenous in embryos)) (UniProt Q9W0G7)
[2] = target: Augmin-GFP (purified mitotic Augmin complex) (Drosophila | Drosophila (endogenous in embryos)) (UniProt Q9W0G7); experiment: fluorescence microscopy of junctions between microtubules loaded with purified complexes; as the junction assay, but with HiLyte 647-labelled GMPCPP MT seeds (1:10) to mark the minus ends
[3] = target: Augmin-GFP (purified mitotic Augmin complex) (Drosophila | Drosophila (endogenous in embryos)) (UniProt Q9W0G7); experiment: fluorescence microscopy of junctions between microtubules loaded with purified complexes; taxol-stabilised Rhodamine-MTs incubated with γ-TuRC-GFP and HiLyte Fluor 488-MTs incubated with Augmin-GFP, each pelleted through 15% glycerol, mixed 1:1 for 10 min at room temperature, fixed and …

γ-TuRC-GFP (purified mitotic γ-Tubulin Ring Complex) (from UniProt P42271 1-457; P42271 1-457)
x50 (time at which 50% of Tubulin polymerisation was achieved) with Augmin-GFP added to γ-TuRC-GFP; γ-TuRC-GFP alone 16.5 mins, control 31.5mins [1]: 9.5 min
percent of γ-TuRC-RhodMTs generating branches on Augmin-488MTs [2]: 64%
percent of γ-TuRC-containing RhodMTs that terminate at an Augmin-containing 488MT [3]: 55%
